The record followed here is patent US20180037651A1.

For orientation: EC50 means the midpoint of the concentration-response curve.

This experiment concerns the target GPRC5D (MM.1R cells) (UniProt Q9NZD1). In words: FACS cell binding; MM.1R cells.

In turn, Fab6300 came in with an EC50 of 122 nM.
